{"source": "paper PMC6902028", "about": "“Elucidating the Immune Evasion Mechanisms of Borrelia mayonii, the Causative Agent of Lyme Disease” (Frontiers in Immunology, 2019)", "binders": {"B1": {"name": "His6-tagged CspA of B. mayonii MN14-1420 (CspA-like protein Bmayo_04535) (natural protein)", "chain": "TANPIDPKANGNIKPKNNINTKKNTNLEKNTQNFENESENPRSYNQKLLEATIKELKVIGKNLEDQRKEENIQIAKIVDEKFDFLGTFKVGPYDIIEENQQMKMKRIIYSSLNYKKEKIETLKEILETLKNNPEHQYIAGRLANLSWSIQFKIDDNFETIQNGVDNLDQEKSESLLMRAKSNLQLKERFKKTLNETLEAYSQNAQNIKNDIGILAEHVNKYYKYSDSLKPIFY", "notes": "also called CspA orthologous protein of B. mayonii; CspA ortholog; not shown: His6, N-terminal, kept"}}, "biological_target": "T1, complement regulator factor H (FH) (human, UniProt P08603 19-1231)", "T1 construct": "source: bought: Complement Technology (purified); native, in non-immune human serum (NHS, NHS-EDTA)", "T1 sequence (P08603 19-1231)": "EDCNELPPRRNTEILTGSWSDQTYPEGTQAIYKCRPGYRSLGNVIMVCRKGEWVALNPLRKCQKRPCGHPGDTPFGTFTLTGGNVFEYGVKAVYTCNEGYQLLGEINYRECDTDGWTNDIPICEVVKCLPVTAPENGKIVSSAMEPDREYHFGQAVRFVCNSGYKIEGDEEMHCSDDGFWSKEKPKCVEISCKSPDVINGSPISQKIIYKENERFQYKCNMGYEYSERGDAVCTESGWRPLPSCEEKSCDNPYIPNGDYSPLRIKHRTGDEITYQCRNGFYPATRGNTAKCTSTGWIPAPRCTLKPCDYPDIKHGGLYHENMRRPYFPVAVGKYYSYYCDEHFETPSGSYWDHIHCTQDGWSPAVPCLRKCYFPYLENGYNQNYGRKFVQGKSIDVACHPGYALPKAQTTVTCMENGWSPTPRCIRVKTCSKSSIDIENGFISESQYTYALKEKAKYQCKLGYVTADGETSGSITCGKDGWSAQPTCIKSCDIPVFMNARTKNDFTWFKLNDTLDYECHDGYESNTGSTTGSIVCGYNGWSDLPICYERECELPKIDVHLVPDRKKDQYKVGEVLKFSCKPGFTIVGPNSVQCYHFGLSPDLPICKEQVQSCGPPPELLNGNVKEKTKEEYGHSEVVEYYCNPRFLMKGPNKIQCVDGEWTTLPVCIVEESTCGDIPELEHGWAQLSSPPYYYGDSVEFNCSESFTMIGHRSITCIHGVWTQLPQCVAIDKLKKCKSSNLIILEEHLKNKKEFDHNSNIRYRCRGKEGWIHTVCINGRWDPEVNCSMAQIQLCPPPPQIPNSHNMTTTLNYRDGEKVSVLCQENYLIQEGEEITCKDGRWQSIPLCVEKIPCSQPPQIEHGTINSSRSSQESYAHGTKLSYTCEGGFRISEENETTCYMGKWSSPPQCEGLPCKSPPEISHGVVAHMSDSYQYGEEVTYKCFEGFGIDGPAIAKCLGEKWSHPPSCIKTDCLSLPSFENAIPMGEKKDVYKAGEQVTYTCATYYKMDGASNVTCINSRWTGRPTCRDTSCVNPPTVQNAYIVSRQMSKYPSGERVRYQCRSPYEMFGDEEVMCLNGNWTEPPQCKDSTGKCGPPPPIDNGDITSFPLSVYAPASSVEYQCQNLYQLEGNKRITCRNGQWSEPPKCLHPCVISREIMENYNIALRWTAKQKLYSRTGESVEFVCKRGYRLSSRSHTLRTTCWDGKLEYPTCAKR", "assay": "ELISA; CspA of B. mayonii MN14-1420 (5 μg/ml) immobilised, increasing concentrations of FH; non-linear regression, one-site specific binding model", "settings": "both partners purified", "data": [{"binder": "B1", "values": [{"measurement": "Kd", "value": "5.6 ± 0.58", "unit": "nM"}]}]}
